Square brackets hold non-standard residues; d marks the D form. cellulose membrane = cellulose membrane solid support, attached through a beta-alanine spacer; sY = N[C@@H](Cc1ccc(OS(=O)(=O)O)cc1)C(=O)O; βAla = NCCC(=O)O
T1: peptide EYEYLDyDF (SEQ ID NO:45) (human)
T1 construct: Spot 55 of the peptide array; also called peptide 55
T1 peptide: Ac-EYEYLD[sY]DF-{βAla-cellulose membrane}

T2: fully sulfated and glycosylated human PSGL-1 19.ek.Fc fusion protein (human, not fully specified; sulfated tyrosines (y in QATEyEyLDyDFLPETEPPRPMMDDDDK, corresponding to Tyr46, Tyr48 and Tyr51); SLe^x-capped O-glycan; biotinylated in the assays)
T2 construct: also called PSGL-19.ek.Fc; biotinylated PSGL-1 19.ek.Fc
T2 chain: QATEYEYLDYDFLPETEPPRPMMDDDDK

T3: human PSGL-1 on cells (human, UniProt Q14242 42-412)
T3 construct: whole, on cells; One molecule is used for HL-60 cells, recombinant CHO cells and blood cells; The cell type is named in each entry; also called native PSGL-1 expressed on HL-60 cells; recombinant CHO cells expressing human PSGL-1
T3 sequence (looked up): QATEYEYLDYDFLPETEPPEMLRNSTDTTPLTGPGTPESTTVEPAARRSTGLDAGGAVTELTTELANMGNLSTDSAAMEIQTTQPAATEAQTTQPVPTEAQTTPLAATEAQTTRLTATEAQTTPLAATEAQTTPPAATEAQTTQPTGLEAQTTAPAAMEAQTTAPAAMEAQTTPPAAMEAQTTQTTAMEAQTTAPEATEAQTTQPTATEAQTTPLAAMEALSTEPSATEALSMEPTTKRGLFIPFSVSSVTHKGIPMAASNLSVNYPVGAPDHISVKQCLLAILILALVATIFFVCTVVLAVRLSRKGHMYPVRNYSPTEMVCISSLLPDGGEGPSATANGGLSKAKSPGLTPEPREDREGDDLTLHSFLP


Tests used:
[1] = target: T1, peptide EYEYLDyDF (SEQ ID NO:45); assay: peptide spot array on cellulose membrane, HRP anti-Fc detection
From the text: Epitope mapping of PSG3. Fmoc-protected amino acids and cellulose membranes modified with polyethylene glycol were purchased from Intavis. Fmoc-protected β-alanine was purchased from Chem-Impex (Wood Dale, Ill.). The arrays were defined on the membranes by coupling a β-alanine spacer, followed by elongation of the peptide chain. Peptides were synthesized using standard DIC/HOBt coupling chemistry as described previously. (See, e.g., Molina et al., Pept. Res. 9:151-155 (1996) and Frank et al., Tetrahedron 48:9217-9232 (1992)). Activated amino acids were spotted using an Abimed ASP 222 robot. Washing and deprotection steps were done manually and the peptides were N-terminally acetylated after the final synthesis cycle.
Following peptide synthesis and side chain deprotection, the membranes were washed in methanol for 10 minutes and in blocker (1% casein in TBS) for 10 minutes. The membranes were then incubated with 1 μg/mL of […] in TBS for 1 hour with gentle shaking. The membranes were washed 4 times for 2 minutes in TBS and then probed with an HRP-conjugated anti-Fc antibody in blocker. After washing with TBS, bound protein was visualized using SuperSignal West reagent (Pierce) and a digital camera (AlphaInnotech FluorImager). Signal intensity reflects the amount of protein bound at each spot.

[2] = target: T2, fully sulfated and glycosylated human …; assay: BIAcore 2000, biotinylated PSGL-1 19.ek.Fc on streptavidin chip, antibody injected at 0-100 nM
Description: Surface plasmon resonance binding analysis. A BIAcore 2000 instrument (BIAcore AB, Uppsala, Sweden) was used to analyze the interactions between the identified antibodies and biotinylated PSGL-1 19.ek.Fc or derived peptides. Binding experiments were performed at 25° C. using streptavidin-coated sensor chips (BIAcore) and HBS-P buffer (20 mM HEPES [pH 7.4], 150 mM NaCl and 0.005% polysorbate 20 v/v) adjusted to 1 mM for both CaCl₂ and MgCl₂. The streptavidin on the sensor surfaces were condition with three one-minute injections of a solution containing 1 M NaCl and 25 mM NaOH. The chips were regenerated with 5 μL of 0.1% TFA and equilibrated with running buffer. […] Binding kinetics were analyzed using BIAevaluation software (V2.1; Pharmacia Biosensor, Uppsala, Sweden). The response representing the mass of bound monoclonal antibodies was measured in resonance units (RU). […] Binding kinetics of human anti-PSGL-1 monoclonal antibodies to the immobilized PSGL-1 19.ek.Fc was determined under partial mass transport limitations by triplicate injections at a concentration range (0-100 nM) onto the immobilized biotinlylated PSGL-1 19.ek peptide at a flow rate of 30 μL/min, following injection for two minutes. Dissociation was monitored for ten minutes at the same flow rate.

[3] = target: T3, human PSGL-1 on cells; assay: FACS on recombinant CHO cells expressing human PSGL-1 (data not shown)
[4] = target: T3, human PSGL-1 on cells; assay: FACS on HL-60 cells, scFv complexed with mouse anti-Myc, FITC secondary
Description: Characterization of the antibodies using FACS analysis. The binding specificity of the neutralizing antibodies was assessed by FACS analysis of HL-60 cells as well as in parent and recombinant CHO cells expressing human or rat PSGL-1 (data not shown). For FACS analysis, 0.5×10⁶ cells were incubated in 100 μL HBSS 2 mM CaCl₂, 1% fetal calf serum, NaN₃, containing 15 or 50 μg of the indicated scFvs complexed with 50 μg/ml mouse-anti-Myc-HRP (Roche Applied Sciences, Indianapolis, Ind.). The cells were washed and incubated with 1:100 anti-mouse FITC-conjugated secondary antibody (Roche Applied Sciences, Indianapolis, Ind.). Analysis was performed on viable cells of the mononuclear population with low forward and side scatter properties. As shown in FIG. 7(A) and FIG. 7(B), PSG3, PSG5, and PSG6 scFvs bind to native PSGL-1 expressed on HL-60 cells.

Binder | binding result [1] | Ka [2] [M⁻¹] | binding result [3] | binding result [4]
PSG3 full-length bivalent antibody (human IgG4, lambda) (antibody, V domains shown, also called full length PSG3; human monoclonal antibody PSG3) VH: QVQLVQSGAEVKKPGSSVRVSCKASGGSFSSYGIHWVQQAPGQGLEWMGRIIPVLRIRNYAQKFHDRVTIDADTSTGTAYMELSSLTSDDTAVYYCAGSRQGVAPTGYWGQGTMVTVSS VL: QAVLTQPSSLSASPGASASLTCNLRSGIDVGTYRIYWYQQKPGSPPQYLLRYKSDSDKQQGSGVPSRFSGTKDASANAGILLISGLQSEDEADYYCMIWHSNGWVFGGGTKLTVLG | binds | ~1.4e+09 | binds | –
PSG3 scFv (scFv, Human scFv from a phage display library, purified from E. coli periplasm on NiNTA and detected with anti-Myc; also called scFv PSG3) scFv: QVQLVQSGAEVKKPGSSVRVSCKASGGSFSSYGIHWVQQAPGQGLEWMGRIIPVLRIRNYAQKFHDRVTIDADTSTGTAYMELSSLTSDDTAVYYCAGSRQGVAPTGYWGQGTMVTVSSGGGGSGGGGSGGGGSAQAVLTQPSSLSASPGASASLTCNLRSGIDVGTYRIYWYQQKPGSPPQYLLRYKSDSDKQQGSGVPSRFSGTKDASANAGILLISGLQSEDEADYYCMIWHSNGWVFGGGTKLTVLGAAAHHHHHH | – | – | – | binds
PSG6 scFv (scFv, Human scFv from a phage display library, purified on NiNTA and detected with anti-Myc; also called scFv PSG6) scFv: EVQLLESGGGLVRPGGSLRLSCAASGFTFSSYAMSWVRQAPGKGLEWVSAISGSGGSTYYADSVKGRFTISRDNSKNTLYLQMNSLRAEDTAVYYCARDKRLTYWGQGTMVTVSSGGGGSGGGGSGGGGSAQSVVTQPPSVSAAPGQKVTISCSGSSSNIGNNYVSWYQQLPGTAPKLLIYDNNKRPSGIPDRFSGSKSGTSATLGITGLQTGDEADYYCGTWDSSLSARVFGGGTKVTVLGAAAHHHHHH | – | – | – | binds
PSG6 full-length bivalent antibody (human IgG4, lambda) (antibody, V domains shown, also called human monoclonal antibody PSG6) VH: EVQLLESGGGLVRPGGSLRLSCAASGFTFSSYAMSWVRQAPGKGLEWVSAISGSGGSTYYADSVKGRFTISRDNSKNTLYLQMNSLRAEDTAVYYCARDKRLTYWGQGTMVTVSS VL: QSVVTQPPSVSAAPGQKVTISCSGSSSNIGNNYVSWYQQLPGTAPKLLIYDNNKRPSGIPDRFSGSKSGTSATLGITGLQTGDEADYYCGTWDSSLSARVFGGGTKVTVLG | – | ~6e+08 | binds | –

From patent US20070160601A1 (published 2007)
